From the supplement of paper PMC10724198 come the findings set out here.

± gives the standard deviation of the averaged measurements.

Data set [1] concerns Saccharomyces cerevisiae. Put plainly: protein stability index of tFT-peptide fusion (C-terminal peptide) (PSI (0-1 scale)); higher = more stable (slower turnover). To be noted: genetic background: wild type; temperature: 30 C.
For data set [2], the system named is Saccharomyces cerevisiae. The description is as above. How it is done:
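MPS profiling in S. cerevisiae of the tFT-X12 degron library: putative degron peptides plus stable controls, 12 aa, fused to the C-terminus of a sfGFP-mCherry timer. Cells are FACS-sorted into 8 mCherry/sfGFP bins and deep-sequenced. PSI runs from 0 (unstable) to 1 (stable). Backgrounds are wild type, das1Δ and doa10Δ at 30 °C, and wild type, das1Δ, cdc34-1 and cdc53-1 at 37 °C; 2-3 technical replicates each.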

Setting [3] is: genetic background: cdc34-1, temperature: 37 C.
The mark [4] stands for this setting: genetic background: cdc53-1, temperature: 37 C.
The mark [5] stands for this setting: genetic background: das1 deletion, temperature: 30 C.
The mark [6] stands for this setting: genetic background: das1 deletion, temperature: 37 C.
[7] abbreviates: genetic background: doa10 deletion, temperature: 30 C.
[8] abbreviates: genetic background: wild type, temperature: 30 C.
Where [9] appears, read: genetic background: wild type, temperature: 37 C.
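Note: PSI is a weighted mean of sequencing reads over stability bins, variants kept only with over 10 reads, mCherry proximal and sfGFP distal, peptide attached via GGGS linker.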

Take ACALRSLPPRPY: the protein stability index in the data set on Saccharomyces cerevisiae [1] came out at 0.188 ± 0.064; in the data set with Saccharomyces cerevisiae [2] (setting [3]), 0.69 ± 0.035; in the data set with Saccharomyces cerevisiae [2] (setting [4]) it was 0.7529 ± 0.0042; in the data set with Saccharomyces cerevisiae [2] (setting [5]), 0.65 ± 0.024; in the data set on Saccharomyces cerevisiae [2] (setting [6]), 0.746 ± 0.024; in the data set with Saccharomyces cerevisiae [2] (setting [7]), 0.68 ± 0.019. The results for the protein stability index in the data set on Saccharomyces cerevisiae [2] (setting [8]) and in the data set on Saccharomyces cerevisiae [2] (setting [9]) were 0.649 ± 0.021 and 0.712 ± 0.017, respectively.
Regarding ACCGVFFFFFWL, the protein stability index in the data set on Saccharomyces cerevisiae [1] was 0.404 ± 0.018; in the data set on Saccharomyces cerevisiae [2] (setting [3]), 0.403 ± 0.029; in the data set on Saccharomyces cerevisiae [2] (setting [4]) it was 0.479 ± 0.018; in the data set with Saccharomyces cerevisiae [2] (setting [5]), 0.366 ± 0.031; with Saccharomyces cerevisiae [2] (setting [6]) it was 0.414 ± 0.016; in the data set on Saccharomyces cerevisiae [2] (setting [7]), 0.363 ± 0.0061. Besides, the protein stability index with Saccharomyces cerevisiae [2] (setting [8]) stood at 0.35 ± 0.02; in the data set on Saccharomyces cerevisiae [2] (setting [9]), 0.433 ± 0.031.
As to ACLVAVWRWVFV, the protein stability index amounted to 0.126 ± 0.024 in the data set with Saccharomyces cerevisiae [1]; 0.276 ± 0.017 with Saccharomyces cerevisiae [2] (setting [3]); 0.44 ± 0.037 in the data set on Saccharomyces cerevisiae [2] (setting [4]); 0.309 ± 0.024 in the data set with Saccharomyces cerevisiae [2] (setting [5]); 0.475 ± 0.0051 in the data set on Saccharomyces cerevisiae [2] (setting [6]); 0.0646 ± 0.012 with Saccharomyces cerevisiae [2] (setting [7]). Also, the protein stability index in the data set on Saccharomyces cerevisiae [2] (setting [8]) was found to be 0.0758 ± 0.0066; in the data set with Saccharomyces cerevisiae [2] (setting [9]), 0.0704 ± 0.0067.
AFAFLLHRFLLV: the protein stability index in the data set on Saccharomyces cerevisiae [1] worked out at 0.148 ± 0.017; in the data set on Saccharomyces cerevisiae [2] (setting [3]), 0.493 ± 0.058; in the data set on Saccharomyces cerevisiae [2] (setting [4]) it was 0.55 ± 0.0057; in the data set on Saccharomyces cerevisiae [2] (setting [5]), 0.477 ± 0.018; in the data set on Saccharomyces cerevisiae [2] (setting [6]), 0.584 ± 0.0064; with Saccharomyces cerevisiae [2] (setting [7]), 0.103 ± 0.0047. Further, the protein stability index amounted to 0.11 ± 0.012 with Saccharomyces cerevisiae [2] (setting [8]) and 0.142 ± 0.011 in the data set on Saccharomyces cerevisiae [2] (setting [9]).
Consider AFYQSGGLVVVV, for which the protein stability index in the data set with Saccharomyces cerevisiae [2] (setting [3]) was found to be 0.618 ± 0.043; in the data set with Saccharomyces cerevisiae [2] (setting [4]), 0.617 ± 0.016; in the data set on Saccharomyces cerevisiae [2] (setting [5]), 0.459 ± 0.034; in the data set with Saccharomyces cerevisiae [2] (setting [6]), 0.6279 ± 0.0048; in the data set on Saccharomyces cerevisiae [2] (setting [7]), 0.45 ± 0.016; in the data set with Saccharomyces cerevisiae [2] (setting [8]) it was 0.477 ± 0.024. Besides, the protein stability index in the data set with Saccharomyces cerevisiae [2] (setting [9]) is 0.591 ± 0.046.
For the sequence APPFPPPPARSL, the protein stability index in the data set on Saccharomyces cerevisiae [2] (setting [3]) was 0.644 ± 0.034; in the data set on Saccharomyces cerevisiae [2] (setting [4]), 0.713 ± 0.0095; in the data set with Saccharomyces cerevisiae [2] (setting [5]), 0.675 ± 0.019; with Saccharomyces cerevisiae [2] (setting [6]) it was 0.718 ± 0.033; with Saccharomyces cerevisiae [2] (setting [7]), 0.694 ± 0.022; with Saccharomyces cerevisiae [2] (setting [8]), 0.68 ± 0.017. In the data set with Saccharomyces cerevisiae [2] (setting [9]), this sequence gave a protein stability index of 0.677 ± 0.015.
Regarding DNTYRIDIKNKQ, the protein stability index with Saccharomyces cerevisiae [2] (setting [3]) came out at 0.764 ± 0.093; in the data set on Saccharomyces cerevisiae [2] (setting [4]), 0.771 ± 0.04; with Saccharomyces cerevisiae [2] (setting [5]), 0.641 ± 0.019; with Saccharomyces cerevisiae [2] (setting [6]), 0.689 ± 0.0069; in the data set with Saccharomyces cerevisiae [2] (setting [7]) it was 0.4753 ± 0.0045; with Saccharomyces cerevisiae [2] (setting [8]), 0.466 ± 0.013. The protein stability index in the data set on Saccharomyces cerevisiae [2] (setting [9]) turned out to be 0.6553 ± 0.00098.
Regarding FFFWLLCAGWLL, the protein stability index worked out at 0.661 ± 0.01 in the data set with Saccharomyces cerevisiae [2] (setting [3]); 0.622 ± 0.012 in the data set with Saccharomyces cerevisiae [2] (setting [4]); 0.544 ± 0.044 in the data set with Saccharomyces cerevisiae [2] (setting [5]); 0.656 ± 0.0071 in the data set on Saccharomyces cerevisiae [2] (setting [6]); 0.551 ± 0.041 in the data set on Saccharomyces cerevisiae [2] (setting [7]); 0.534 ± 0.0081 with Saccharomyces cerevisiae [2] (setting [8]). Further, the protein stability index in the data set with Saccharomyces cerevisiae [2] (setting [9]) was 0.649 ± 0.0073.
Regarding GAQQRVKERYIE, the protein stability index in the data set on Saccharomyces cerevisiae [2] (setting [3]) was determined as 0.648 ± 0.012; in the data set on Saccharomyces cerevisiae [2] (setting [4]) it was 0.721 ± 0.027; with Saccharomyces cerevisiae [2] (setting [5]) it was 0.636 ± 0.028; with Saccharomyces cerevisiae [2] (setting [6]), 0.7346 ± 0.0027; with Saccharomyces cerevisiae [2] (setting [7]), 0.6157 ± 0.0038; with Saccharomyces cerevisiae [2] (setting [8]), 0.646 ± 0.03. Further, the protein stability index with Saccharomyces cerevisiae [2] (setting [9]) was 0.741 ± 0.00086.
For the sequence GGGGVFGVWVWM, the protein stability index with Saccharomyces cerevisiae [2] (setting [3]) was found to be 0.533 ± 0.058; with Saccharomyces cerevisiae [2] (setting [4]), 0.618 ± 0.018; in the data set with Saccharomyces cerevisiae [2] (setting [5]) it was 0.511 ± 0.013; in the data set with Saccharomyces cerevisiae [2] (setting [6]) it was 0.656 ± 0.0086; in the data set with Saccharomyces cerevisiae [2] (setting [7]) it was 0.23 ± 0.017; with Saccharomyces cerevisiae [2] (setting [8]), 0.272 ± 0.024. In the data set with Saccharomyces cerevisiae [2] (setting [9]), this sequence yielded a protein stability index of 0.494 ± 0.014.
As for GRTDFSTLLLIC, the protein stability index was 0.491 ± 0.016 with Saccharomyces cerevisiae [2] (setting [3]); 0.6912 ± 0.0053 in the data set with Saccharomyces cerevisiae [2] (setting [4]); 0.564 ± 0.018 in the data set on Saccharomyces cerevisiae [2] (setting [5]); 0.683 ± 0.019 with Saccharomyces cerevisiae [2] (setting [6]); 0.106 ± 0.012 in the data set on Saccharomyces cerevisiae [2] (setting [7]); 0.132 ± 0.039 in the data set with Saccharomyces cerevisiae [2] (setting [8]). The protein stability index in the data set on Saccharomyces cerevisiae [2] (setting [9]) stood at 0.16 ± 0.056.
Turning to HSAIFLFFFFFG, the protein stability index with Saccharomyces cerevisiae [2] (setting [3]) was determined as 0.283 ± 0.11; with Saccharomyces cerevisiae [2] (setting [4]) it was 0.4553 ± 0.0042; in the data set on Saccharomyces cerevisiae [2] (setting [5]) it was 0.314 ± 0.022; in the data set with Saccharomyces cerevisiae [2] (setting [6]), 0.444 ± 0.03; in the data set on Saccharomyces cerevisiae [2] (setting [7]) it was 0.331 ± 0.051; in the data set on Saccharomyces cerevisiae [2] (setting [8]), 0.296 ± 0.024. The protein stability index with Saccharomyces cerevisiae [2] (setting [9]) turned out to be 0.401 ± 0.034.
For LLFFGFVGSCVF, the protein stability index amounted to 0.6341 ± 0.0023 with Saccharomyces cerevisiae [2] (setting [3]); 0.6187 ± 0.0052 with Saccharomyces cerevisiae [2] (setting [4]); 0.468 ± 0.028 in the data set on Saccharomyces cerevisiae [2] (setting [5]); 0.671 ± 0.041 in the data set with Saccharomyces cerevisiae [2] (setting [6]); 0.471 ± 0.047 in the data set with Saccharomyces cerevisiae [2] (setting [7]); 0.485 ± 0.036 in the data set with Saccharomyces cerevisiae [2] (setting [8]). The protein stability index in the data set with Saccharomyces cerevisiae [2] (setting [9]) worked out at 0.57 ± 0.0036.
In the case of LPPHSASLSSSF, the protein stability index is 0.701 ± 0.054 in the data set with Saccharomyces cerevisiae [2] (setting [3]); 0.7591 ± 0.0059 in the data set on Saccharomyces cerevisiae [2] (setting [4]); 0.635 ± 0.029 with Saccharomyces cerevisiae [2] (setting [5]); 0.725 ± 0.011 in the data set on Saccharomyces cerevisiae [2] (setting [6]); 0.665 ± 0.015 in the data set on Saccharomyces cerevisiae [2] (setting [7]); 0.675 ± 0.022 in the data set on Saccharomyces cerevisiae [2] (setting [8]). The protein stability index in the data set with Saccharomyces cerevisiae [2] (setting [9]) came out at 0.704 ± 0.013.
On to NAAVQSGGRVAG, for which the protein stability index in the data set with Saccharomyces cerevisiae [2] (setting [3]) was determined as 0.67 ± 0.043; in the data set on Saccharomyces cerevisiae [2] (setting [4]), 0.722 ± 0.05; in the data set with Saccharomyces cerevisiae [2] (setting [5]), 0.638 ± 0.01; in the data set with Saccharomyces cerevisiae [2] (setting [6]), 0.733 ± 0.0013; in the data set on Saccharomyces cerevisiae [2] (setting [7]) it was 0.645 ± 0.025; in the data set with Saccharomyces cerevisiae [2] (setting [8]), 0.646 ± 0.0076. For the same sequence, the protein stability index with Saccharomyces cerevisiae [2] (setting [9]) came out at 0.696 ± 0.016.
Consider PACPPLPPRSPS, for which the protein stability index in the data set on Saccharomyces cerevisiae [2] (setting [3]) is 0.634 ± 0.0068; in the data set on Saccharomyces cerevisiae [2] (setting [4]) it was 0.7142 ± 0.0047; with Saccharomyces cerevisiae [2] (setting [5]), 0.693 ± 0.028; with Saccharomyces cerevisiae [2] (setting [6]), 0.737 ± 0.017; in the data set on Saccharomyces cerevisiae [2] (setting [7]), 0.688 ± 0.069; with Saccharomyces cerevisiae [2] (setting [8]), 0.7 ± 0.015. Moreover, the protein stability index in the data set with Saccharomyces cerevisiae [2] (setting [9]) came to 0.7 ± 0.024.
RPPHPPPATFLS: the protein stability index in the data set with Saccharomyces cerevisiae [2] (setting [3]) turned out to be 0.617 ± 0.064; in the data set on Saccharomyces cerevisiae [2] (setting [4]), 0.7 ± 0.0084; with Saccharomyces cerevisiae [2] (setting [5]), 0.679 ± 0.018; in the data set on Saccharomyces cerevisiae [2] (setting [6]), 0.727 ± 0.0097; in the data set on Saccharomyces cerevisiae [2] (setting [7]) it was 0.226 ± 0.025; in the data set on Saccharomyces cerevisiae [2] (setting [8]), 0.253 ± 0.025. For the same sequence, the protein stability index in the data set with Saccharomyces cerevisiae [2] (setting [9]) worked out at 0.487 ± 0.021.
For the sequence RWRLWVGWGVVG, the protein stability index in the data set on Saccharomyces cerevisiae [2] (setting [3]) was determined as 0.621 ± 0.034; in the data set on Saccharomyces cerevisiae [2] (setting [4]), 0.688 ± 0.022; with Saccharomyces cerevisiae [2] (setting [5]), 0.521 ± 0.0056; in the data set with Saccharomyces cerevisiae [2] (setting [6]), 0.691 ± 0.039; with Saccharomyces cerevisiae [2] (setting [7]) it was 0.425 ± 0.029; in the data set with Saccharomyces cerevisiae [2] (setting [8]), 0.368 ± 0.078. This sequence came in with a protein stability index with Saccharomyces cerevisiae [2] (setting [9]) of 0.533 ± 0.059.
Regarding VGGREVSRAGGG, the protein stability index in the data set with Saccharomyces cerevisiae [2] (setting [3]) stood at 0.62 ± 0.048; in the data set with Saccharomyces cerevisiae [2] (setting [4]), 0.672 ± 0.0081; in the data set with Saccharomyces cerevisiae [2] (setting [5]) it was 0.49 ± 0.027; in the data set with Saccharomyces cerevisiae [2] (setting [6]), 0.578 ± 0.06; with Saccharomyces cerevisiae [2] (setting [7]), 0.477 ± 0.0076; in the data set with Saccharomyces cerevisiae [2] (setting [8]), 0.481 ± 0.011. This sequence registered a protein stability index with Saccharomyces cerevisiae [2] (setting [9]) of 0.534 ± 0.041.
